Changes are numbered by the printed parent chain. Numbers in names are those of the source.
T1: Ep-CAM (UniProt P16422 24-265, limits assumed)
T1 construct: Antigen of the Biacore analysis of ING-1 variants
T1 sequence (looked up): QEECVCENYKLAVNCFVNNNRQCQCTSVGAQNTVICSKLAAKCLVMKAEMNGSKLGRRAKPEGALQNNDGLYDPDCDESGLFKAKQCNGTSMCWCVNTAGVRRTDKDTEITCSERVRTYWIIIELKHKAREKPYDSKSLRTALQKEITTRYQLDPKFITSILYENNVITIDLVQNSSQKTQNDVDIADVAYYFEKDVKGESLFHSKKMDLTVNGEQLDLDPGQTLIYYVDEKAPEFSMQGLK

B1: ING-1 heavy chain D104F (Fab, V domains shown)
VH: QIQLVQSGPELKKPGETVKISCKASGYTFTKYGMNWVKQAPGKGLKWMGWINTYTEEPTYGDDFKGRFAFSLETSASTANLQINNLKSEDTATYFCARFGSAVFYWGQGTSVTVSS
VL: DIVMTQAAFSNPVTLGTSGSISCRSSKSLLHSNGITYLYWYLQKPGQSPQLLIYQMSNLASGVPDRFSSSGSGTDFTLRISRVEAEDVGVYYCAQNLELPRTFGGGTKLEMKR
B2: ING-1 heavy chain D104K (Fab, V domains shown)
VH: B1 VH with F104K
VL: B1 VL
B3: ING-1 heavy chain D104W (Fab, V domains shown)
VH: B1 VH with F104W
VL: B1 VL
B4: ING-1 heavy chain G33W (Fab, V domains shown)
VH: B1 VH with G33W, F104D
VL: B1 VL
B5: ING-1 heavy chain D104Q (Fab, V domains shown)
VH: B1 VH with F104Q
VL: B1 VL
B6: ING-1 heavy chain G33N (Fab, V domains shown)
VH: B1 VH with G33N, F104D
VL: B1 VL
B7: ING-1 heavy chain G33K (Fab, V domains shown)
VH: B1 VH with G33K, F104D
VL: B1 VL
B8: ING-1 heavy chain G33Q (Fab, V domains shown)
VH: B1 VH with G33Q, F104D
VL: B1 VL
B9: ING-1 heavy chain G33D (Fab, V domains shown)
VH: B1 VH with G33D, F104D
VL: B1 VL
B10: ING-1 heavy chain D104H (Fab, V domains shown)
VH: B1 VH with F104H
VL: B1 VL
B11: ING-1 heavy chain G33H (Fab, V domains shown)
VH: B1 VH with G33H, F104D
VL: B1 VL
B12: ING-1 heavy chain G33E (Fab, V domains shown)
VH: B1 VH with G33E, F104D
VL: B1 VL
B13: ING-1 heavy chain D104R (Fab, V domains shown)
VH: B1 VH with F104R
VL: B1 VL
B14: ING-1 heavy chain G33R (Fab, V domains shown)
VH: B1 VH with G33R, F104D
VL: B1 VL
B15: ING-1 heavy chain E57Q (Fab, V domains shown)
VH: B1 VH with E57Q, F104D
VL: B1 VL
B16: ING-1 heavy chain D104Y (Fab, V domains shown)
VH: B1 VH with F104Y
VL: B1 VL
B17: XPA23 heavy chain T58V (Fab, V domains shown)
VH: EVQLLESGGGLVQPGGSLRLSCAASGFTFSKYFMFWVRQAPGKGLEWVSVISPSGGMVRYADSVKGRFTISRDNSKNTLYLQMNSLRAEDTAVYYCARVGYGGNSDYWGQGTLVTVSS
VL: DIQMTQSPSSVSASVGDRLTIICRASQDINRWLAWYQQTPGNAPKLLIHSATSLQSGVPSRFSGSGSGTDFTLTINSLQPEDFATYYCQQADSFPLTFGGGTKVEIK
notes: Fab, periplasmic extract; also called C5A T58V
B18: XPA23 heavy chain Y107L (Fab, V domains shown)
VH: B17 VH with V58T, Y107L
VL: B17 VL
notes: Fab, periplasmic extract; also called C5A Y107L
B19: XPA23 heavy chain Y32G (Fab, V domains shown)
VH: B17 VH with Y32G, V58T
VL: B17 VL
notes: Fab, periplasmic extract; also called C5A Y32G
B20: XPA23 heavy chain V99A (Fab, V domains shown)
VH: B17 VH with V58T, V99A
VL: B17 VL
notes: Fab, periplasmic extract; also called C5A V99A
B21: XPA23 heavy chain Y32L (Fab, V domains shown)
VH: B17 VH with Y32L, V58T
VL: B17 VL
notes: Fab, periplasmic extract; also called C5A Y32L
B22: XPA23 heavy chain Y107G (Fab, V domains shown)
VH: B17 VH with V58T, Y107G
VL: B17 VL
notes: Fab, periplasmic extract; also called C5A Y107G
B23: XPA23 heavy chain Y32T (Fab, V domains shown)
VH: B17 VH with Y32T, V58T
VL: B17 VL
notes: Fab, periplasmic extract; also called C5A Y32T
B24: XPA23 heavy chain Y101L (Fab, V domains shown)
VH: B17 VH with V58T, Y101L
VL: B17 VL
notes: Fab, periplasmic extract; also called C5A Y101L
B25: XPA23 heavy chain Y101V (Fab, V domains shown)
VH: B17 VH with V58T, Y101V
VL: B17 VL
notes: Fab, periplasmic extract; also called C5A Y101V
B26: XPA23 heavy chain Y101P (Fab, V domains shown)
VH: B17 VH with V58T, Y101P
VL: B17 VL
notes: Fab, periplasmic extract; also called C5A Y101P
B27: XPA23 heavy chain Y107V (Fab, V domains shown)
VH: B17 VH with V58T, Y107V
VL: B17 VL
notes: Fab, periplasmic extract; also called C5A Y107V
B28: XPA23 heavy chain Y101A (Fab, V domains shown)
VH: B17 VH with V58T, Y101A
VL: B17 VL
notes: Fab, periplasmic extract; also called C5A Y101A
B29: XPA23 heavy chain Y101T (Fab, V domains shown)
VH: B17 VH with V58T, Y101T
VL: B17 VL
notes: Fab, periplasmic extract; also called C5A Y101T
B30: XPA23 heavy chain Y107A (Fab, V domains shown)
VH: B17 VH with V58T, Y107A
VL: B17 VL
notes: Fab, periplasmic extract; also called C5A Y107A
B31: XPA23 heavy chain V99T (Fab, V domains shown)
VH: B17 VH with V58T, V99T
VL: B17 VL
notes: Fab, periplasmic extract; also called C5A V99T
B32: XPA23 heavy chain Y101I (Fab, V domains shown)
VH: B17 VH with V58T, Y101I
VL: B17 VL
notes: Fab, periplasmic extract; also called C5A Y101I
B33: XPA23 heavy chain Y107P (Fab, V domains shown)
VH: B17 VH with V58T, Y107P
VL: B17 VL
notes: Fab, periplasmic extract; also called C5A Y107P
B34: XPA23 heavy chain Y107I (Fab, V domains shown)
VH: B17 VH with V58T, Y107I
VL: B17 VL
notes: Fab, periplasmic extract; also called C5A Y107I
B35: XPA23 heavy chain Y32P (Fab, V domains shown)
VH: B17 VH with Y32P, V58T
VL: B17 VL
notes: Fab, periplasmic extract; also called C5A Y32P
B36: XPA23 heavy chain V50G (Fab, V domains shown)
VH: B17 VH with V50G, V58T
VL: B17 VL
notes: Fab, periplasmic extract; also called C5A V50G
B37: XPA23 heavy chain Y32V (Fab, V domains shown)
VH: B17 VH with Y32V, V58T
VL: B17 VL
notes: Fab, periplasmic extract; also called C5A Y32V
B38: XPA23 heavy chain V50I (Fab, V domains shown)
VH: B17 VH with V50I, V58T
VL: B17 VL
notes: Fab, periplasmic extract; also called C5A V50I
B39: XPA23 heavy chain V50L (Fab, V domains shown)
VH: B17 VH with V50L, V58T
VL: B17 VL
notes: Fab, periplasmic extract; also called C5A V50L
B40: XPA23 heavy chain Y107T (Fab, V domains shown)
VH: B17 VH with V58T, Y107T
VL: B17 VL
notes: Fab, periplasmic extract; also called C5A Y107T
B41: XPA23 heavy chain V50A (Fab, V domains shown)
VH: B17 VH with V50A, V58T
VL: B17 VL
notes: Fab, periplasmic extract; also called C5A V50A
B42: XPA23 heavy chain V50T (Fab, V domains shown)
VH: B17 VH with V50T, V58T
VL: B17 VL
notes: Fab, periplasmic extract; also called C5A V50T

Molecular target: T1, Ep-CAM
Assay: Biacore, Fab periplasmic extract

Row | binding result | fold difference in affinity vs original [fold] | Binder
1 | no binding |  | B1
2 | no binding |  | B2
3 | no binding |  | B3
4 | no binding |  | B4
5 | no binding |  | B5
6 | no binding |  | B6
7 | no binding |  | B7
8 |  | 0.06 | B8
9 | no binding |  | B9
10 | no binding |  | B10
11 |  | 0.02 | B11
12 | no binding |  | B12
13 | no binding |  | B13
14 |  | 0.03 | B14
15 | no binding |  | B15
16 | no binding |  | B16

Molecular target: T2, IL-1β (UniProt P01584 117-269)
T2 construct: Antigen of XPA23
Assay: Biacore, Fab periplasmic extract

Row | fold difference in affinity against the original [fold] | Binder
17 | 0.99 | B17
18 | 0.86 | B18
19 | 1 | B19
20 | 0.03 | B20
21 | 0.75 | B21
22 | 0.1 | B22
23 | 0.8 | B23
24 | 1.91 | B24
25 | 0.09 | B25
26 | 0.04 | B26
27 | 0.93 | B27
28 | 0.04 | B28
29 | 0.06 | B29
30 | 0.83 | B30
31 | 0.1 | B31
32 | 0.83 | B32
33 | 0.04 | B33
34 | 0.96 | B34
35 | 0.68 | B35
36 | 0.03 | B36
37 | 1.07 | B37
38 | 0.1 | B38
39 | 0.09 | B39
40 | 0.83 | B40
41 | 0.09 | B41
42 | 0.03 | B42

From patent US20110118131A1 (published 2011)
